This assay has as its target hsp7c_human HSPA8 (UniProt P11142).

Turning to “L-lactate dehydrogenase A chain (Homo sapiens) (from UniProt P00338) K5Q”, the “effect of a mutation on the interaction” value is “increasing interaction”.

(Values after IntAct's records for PubMed 23523103.)
